Laboratory results as given in patent US20090142345A1.

Legend:
[1] = target: human DDR1b protein (Discoidin Domain Receptor 1, isoform b) (human) (UniProt Q08345); experiment: cell-based or functional assay
[2] = target: DDR1bDN protein (dominant negative type DDR1b not having kinase activity) (human) (UniProt Q08345); experiment: cell-based or functional assay

Substance	cell protection inhibitory activity at 33 µg/mL, relative to the change induced by type IV collagen as 100%, HCT116 cells (Caspase-Glo 3/7 Assay) [1] [%]	cell protection inhibitory activity at 1 mg/mL, relative to the absorbance change induced by type IV collagen as 100%, DDR1FL-#117 cells [1] [%]	suppression of serum-removal-induced apoptosis by addition of type IV collagen in DDR1bDN-#206 cells (Cell Death Detection ELISA) [2] [%]	suppression of serum-removal-induced apoptosis by addition of type IV collagen in DDR1FL-#117 cells (Cell Death Detection ELISA) [1] [%]
non-immunized rabbit IgG (Jackson Immunoresearch Company) (antibody)	0	1.7	–	–
type IV collagen (Sigma Company) (ligand)	–	–	34	53
